Tests used:
[1] = biological target: CA of isolated HIV-1 A14C/E45C cores (HIV-1); test: cross-linking; isolated HIV-1 cores with double-cysteine mutant CA, with or without oxidizer; non-reducing SDS-PAGE, immunoblotting with rabbit anti-CA serum
[2] = biological target: HIV-1 CA A14C/E45C, tubular assemblies (HIV-1); test: cross-linking; preassembled double-cysteine mutant CA tubes oxidized with CuSO4/1,10-phenanthroline for 5 seconds, quenched with iodoacetamide and neocuproine; non-reducing SDS-PAGE, Coomassie Blue; with or without prior TRIM5α CC-SPRY (18 µM)
[3] = biological target: CA of isolated HIV-1 P207C/T216C cores, without oxidizer (HIV-1); test: cross-linking; isolated HIV-1 cores with double-cysteine mutant CA, with or without oxidizer; non-reducing SDS-PAGE, immunoblotting with rabbit anti-CA serum
[4] = biological target: HIV-1 capsid-nucleocapsid (CA-NC), preassembled tubular assemblies (HIV-1); test: co-sedimentation; preassembled CA-NC tubes (2 mg/ml or 10 µM, with TG50 oligonucleotide) incubated with TRIM5α CC-SPRY (0-20 µM) 1 hr at room temperature; pelleted at 20,000 g 15 min; SDS-PAGE, Coomassie Blue, gel densitometry of pellet
[5] = biological target: HIV-1 capsid protein (CA), wild type, preassembled tubular assemblies (HIV-1); test: co-sedimentation; preassembled wild-type CA tubes (64 µM) incubated with TRIM5α CC-SPRY (0-20 µM) 1 hr at room temperature in 10 mM Tris pH 7.5, 330 mM NaCl, 1 mM TCEP, 5% glycerol; pelleted at 20,000 g 15 min; SDS-PAGE, Coomassie Blue, gel densitometry of pellet
[6] = biological target: HIV-1 CA P207C/T216C, tubular assemblies, non-oxidized (HIV-1); test: cross-linking; preassembled double-cysteine mutant CA tubes oxidized with CuSO4/1,10-phenanthroline for 5 seconds, quenched with iodoacetamide and neocuproine; non-reducing SDS-PAGE, Coomassie Blue; with or without prior TRIM5α CC-SPRY (18 µM)

CA of isolated HIV-1 A14C/E45C cores (natural protein)
stoichiometry N [1]: 6

HIV-1 CA A14C/E45C, tubular assemblies (natural protein)
stoichiometry N [2]: 6

CA of isolated HIV-1 P207C/T216C cores, without oxidizer (natural protein)
stoichiometry N [3]: 3

Rhesus macaque TRIM5α coiled-coil and SPRY domains (TRIM5αrh CC-SPRY, residues 134–497) (from UniProt Q0PF16 134-497) (domain or fragment)
binding ratio (molar ratio of bound TRIM5αrh CC-SPRY to CA-NC in the pellet) at 1 µM TRIM5αrh CC-SPRY and 10 µM CA-NC [4]: 0.034 molar ratio
binding ratio (molar ratio of bound TRIM5αrh CC-SPRY to CA-NC in the pellet) at 18 µM TRIM5αrh CC-SPRY [4]: 0.21 molar ratio
binding ratio (molar ratio of bound TRIM5αrh CC-SPRY to CA in the pellet) at 18 µM TRIM5αrh CC-SPRY [5]: 0.41 molar ratio

HIV-1 CA P207C/T216C, tubular assemblies, non-oxidized (natural protein)
stoichiometry N [6]: 3
